Assay [1] addresses T1, biotinylated refolded G2-pHLA (A*01:01/b2m/…) (human, biotinylated at the C-terminal AviTag).
T1 construct: Soluble complex caught on streptavidin sensors or MSD plates; also called G2-peptide A*01:01/b2m complex; WT
As to the kind of experiment: BLI (ForteBio Octet HTX), biotinylated G2-pHLA captured on streptavidin SAX biosensor, antibody in solution, 1:2 Fit. (In BLI a coated tip is dipped into the sample, and binding shifts an interference pattern.)

The target in assay [2] is T1, biotinylated refolded G2-pHLA …. As to the kind of experiment: BLI (ForteBio Octet HTX), biotinylated G2-pHLA captured on streptavidin SAX biosensor, antibody in solution, 1:1 Fit.
Description: (§1) The biosensors were then dipped in assay buffer for a baseline. […] The biosensors were finally dipped into wells containing assay buffer to measure the dissociation rate for another 50 seconds. Referencing was completed by having a biosensor with no immobilized ligand dipped into analyte. Kinetic data was processed with Octet™ software using a 1:1 kinetic model with errors within 10%, X² below 3, and R² above 0.9.
The target is the same in assay [3]. As to the kind of experiment: BLI (ForteBio Octet HTX), biotinylated G2-pHLA captured on streptavidin SAX biosensor, antibody in solution, 1:1 kinetic model.
Description: as §1
In assay [4] the target is T2, HLA-PEPTIDE target A*01:01_… (G2) on cells (human).
T2 construct: whole, on cells; also recovered from cell lysates in the IP-MS experiment; also called G2 pHLA; G2 target
As to the kind of experiment: flow cytometry, A375 cells engineered to express the G2 peptide.
Protocol: Tumor cells engineered to express target peptide were harvested, washed in PBS, and stained with eBioscience Fixable Viability Dye eFluor 450 for 15 minutes at room temperature. Following another wash in PBS+1-2% FBS, cells were resuspended with the indicated molecules at varying concentrations and incubated for 1 hour at 4° C. After another wash, PE-conjugated goat anti-human IgG secondary antibody (Jackson ImmunoResearch) was added at 1:100 to 1:200 for 30 minutes at 4° C. After washing in PBS+1-2% FBS, cells were resuspended in PBS+1-2% FBS and analyzed by flow cytometry. Flow cytometric analysis was performed on the Attune NxT Flow Cytometer (ThermoFisher) using the Attune NxT Software. Data was analyzed using FlowJo.

The target in assay [5] is T1, biotinylated refolded G2-pHLA …. As to the kind of experiment: BLI (Octet), biotinylated pHLA on streptavidin sensor, bivalent antibody as analyte (apparent affinity).
Description: as §1
A further assay concerns the target T3, CD3 on CD3+ Jurkat cells (human, UniProt P07766 23-207).
T3 construct: whole, on cells
As to the kind of experiment: flow cytometry, anti IgG PE, CD3+ Jurkat cells. A general note: Flow cytometry measures light scatter and fluorescence of single cells or particles in a stream.

In assay [6] the target is T4, G5 pHLA (HLA-B*35:01 with …) on cells (human).
T4 construct: whole, on cells
The assay can be described thus: flow cytometry, anti IgG PE, LN229 G5 9mer cells (4500 copies per cell).

Assay [7] deals with T2, HLA-PEPTIDE target A*01:01_… (G2) on …. The assay can be described thus: flow cytometry, A375 cells expressing the CT83 pHLA 9-mer.
Protocol: (§2) A375 transduced with luciferase alone served as the negative control. […] Binding was determined by flow cytometery using an anti IgG-PE antibody for detection.
Assay [8] has the same target. The assay can be described thus: flow cytometry, anti IgG PE, A375 9mer cells (1e6 copies per cell).
Protocol: as §2

T3 sequence (P07766 23-207): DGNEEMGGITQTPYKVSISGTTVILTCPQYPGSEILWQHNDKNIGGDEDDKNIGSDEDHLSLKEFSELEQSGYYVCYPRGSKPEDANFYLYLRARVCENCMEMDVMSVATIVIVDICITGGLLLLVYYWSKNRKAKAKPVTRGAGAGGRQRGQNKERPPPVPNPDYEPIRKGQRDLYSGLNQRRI

B1: Format 4-G2(1H11) hOKT3a (non-shortened linkers, without DSB) (bispecific antibody, human IgG1, kappa, N297Q)
chain: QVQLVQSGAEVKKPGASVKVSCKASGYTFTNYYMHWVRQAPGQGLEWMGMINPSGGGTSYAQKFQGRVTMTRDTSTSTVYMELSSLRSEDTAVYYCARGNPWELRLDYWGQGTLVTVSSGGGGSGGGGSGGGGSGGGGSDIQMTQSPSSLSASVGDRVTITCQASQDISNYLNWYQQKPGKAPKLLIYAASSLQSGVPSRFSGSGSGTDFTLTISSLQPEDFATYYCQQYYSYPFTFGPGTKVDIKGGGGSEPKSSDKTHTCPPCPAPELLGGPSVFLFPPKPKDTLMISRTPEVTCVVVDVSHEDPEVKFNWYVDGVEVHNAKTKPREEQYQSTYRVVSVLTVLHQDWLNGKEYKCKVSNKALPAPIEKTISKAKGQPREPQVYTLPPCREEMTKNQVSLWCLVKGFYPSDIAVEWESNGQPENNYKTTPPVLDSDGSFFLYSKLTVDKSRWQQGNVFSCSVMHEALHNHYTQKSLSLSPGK
heavy: QVQLVQSGAEVKKPGASVKVSCKASGYTFTNYYMHWVRQAPGQGLEWMGMINPSGGGTSYAQKFQGRVTMTRDTSTSTVYMELSSLRSEDTAVYYCARGNPWELRLDYWGQGTLVTVSSGGGGSGGGGSGGGGSGGGGSDIQMTQSPSSLSASVGDRVTITCQASQDISNYLNWYQQKPGKAPKLLIYAASSLQSGVPSRFSGSGSGTDFTLTISSLQPEDFATYYCQQYYSYPFTFGPGTKVDIKGGGGSGGGGSQVQLVQSGAEVKKPGASVKVSCKASGYTFTRYTMHWVRQAPGQGLEWMGYINPSRGYTNYNQKFKDRVTLTTDKSSSTAYMELSSLRSEDTAVYYCARYYDDHYSLDYWGQGTLVTVSSASTKGPSVFPLAPSSKSTSGGTAALGCLVKDYFPEPVTVSWNSGALTSGVHTFPAVLQSSGLYSLSSVVTVPSSSLGTQTYICNVNHKPSNTKVDKRVEPKSCDKTHTCPPCPAPELLGGPSVFLFPPKPKDTLMISRTPEVTCVVVDVSHEDPEVKFNWYVDGVEVHNAKTKPREEQYQSTYRVVSVLTVLHQDWLNGKEYKCKVSNKALPAPIEKTISKAKGQPREPQVCTLPPSREEMTKNQVSLSCAVKGFYPSDIAVEWESNGQPENNYKTTPPVLDSDGSFFLVSKLTVDKSRWQQGNVFSCSVMHEALHNRFTQKSLSLSPGK
light: DIQMTQSPSSLSASVGDRVTITCSASSSVSYMNWYQQKPGKAPKRLIYDTSKLASGVPSRFSGSGSGTDFTLTISSLQPEDFATYYCQQWSSNPFTFGQGTKLEIKRTVAAPSVFIFPPSDEQLKSGTASVVCLLNNFYPREAKVQWKVDNALQSGNSQESVTEQDSKDSTYSLSSTLTLSKADYEKHKVYACEVTHQGLSSPVTKSFNRGEC
notes: In solution a mixture of 2xscFv and diabody conformations; also called G2 Format 4 bispecific; G2(1H11)hOKT3a 2xscFv
For orientation: koff means a measure of how fast the partners let go of each other. A higher koff goes with fast dissociation. A word on the kon: it is the rate constant with which the complex forms. A high value points to fast association. For orientation: EC50 means the concentration at which the effect is half-maximal. A low value points to higher potency in that assay. Regarding B1, the Kd in assay [1] came out at 1640 nM; in [2], 30.3 nM; in assay [5], 18 nM. The dissociation rate constant (koff) in assay [1] is 0.324 s⁻¹; in assay [2] it was 0.0277 s⁻¹; in assay [3], 0.00397 s⁻¹. For the same molecule, the kon in [1] turned out to be 198000 M⁻¹ s⁻¹; in [2] it was 913000 M⁻¹ s⁻¹. In addition, in [4], a half-maximal response (EC50) required 9.8 nM.

B2: 41-G5(1C12) UCHT1v9 diabody (bispecific antibody, human IgG1, kappa)
chain: QVQLVQSGAEVKKPGSSVKVSCKASGGTFSNFGVSWLRQAPGQGLEWMGGIIPILGTANYAQKFQGRVTITADESTSTAYMELSSLRSEDTAVYYCATPTNSGYYGPYYYYGMDVWGQGTTVTVSSGGGGSGGGGSDIQMTQSPSSLSASVGDRVTITCRASQSISSWLAWYQQKPGKAPKLLIYAASTLQSGVPSRFSGSGSGTDFTLTISSLQPEDFATYYCQQSYSIPLTFGGGTKVEIKGGGGSEPKSSDKTHTCPPCPAPEFEGGPSVFLFPPKPKDTLMISRTPEVTCVVVDVSHEDPEVKFNWYVDGVEVHNAKTKPREEQYNSTYRVVSVLTVLHQDWLNGKEYKCKVSNKALPASIEKTISKAKGQPREPQVYTLPPCREEMTKNQVSLWCLVKGFYPSDIAVEWESNGQPENNYKTTPPVLDSDGSFFLYSKLTVDKSRWQQGNVFSCSVMHEALHNHYTQKSLSLSPGK
heavy: QVQLVQSGAEVKKPGSSVKVSCKASGGTFSNFGVSWLRQAPGQGLEWMGGIIPILGTANYAQKFQGRVTITADESTSTAYMELSSLRSEDTAVYYCATPTNSGYYGPYYYYGMDVWGQGTTVTVSSGGGGSGGGGSDIQMTQSPSSLSASVGDRVTITCRASQSISSWLAWYQQKPGKAPKLLIYAASTLQSGVPSRFSGSGSGTDFTLTISSLQPEDFATYYCQQSYSIPLTFGGGTKVEIKGGGGSGGGGSEVQLVESGGGLVQPGGSLRLSCAASGYSFTGYTMNWVRQAPGKGLEWVALINPYKGVSTYNQKFKDRFTISVDKSKNTAYLQMNSLRAEDTAVYYCARSGYYGDSDWYFDVWGQGTLVTVSSASTKGPSVFPLAPSSKSTSGGTAALGCLVKDYFPEPVTVSWNSGALTSGVHTFPAVLQSSGLYSLSSVVTVPSSSLGTQTYICNVNHKPSNTKVDKRVEPKSCDKTHTCPPCPAPEFEGGPSVFLFPPKPKDTLMISRTPEVTCVVVDVSHEDPEVKFNWYVDGVEVHNAKTKPREEQYNSTYRVVSVLTVLHQDWLNGKEYKCKVSNKALPASIEKTISKAKGQPREPQVCTLPPSREEMTKNQVSLSCAVKGFYPSDIAVEWESNGQPENNYKTTPPVLDSDGSFFLVSKLTVDKSRWQQGNVFSCSVMHEALHNRFTQKSLSLSPGK
light: not shown
notes: also called 41-G5(1C12) hUCHT1v9; 41-G5 UCHT1v9
As usually defined, the EC50 (read off the curve) is the concentration at which the effect is half-maximal. Low values mean an effect from little substance, high ones a need for much substance. B2: the “EC50 (read off the curve)” value (with CD3 on CD3+ Jurkat cells; in assay [6]) was about 4 nM in each case.

B3: 43-E07 UCHT1v9 (Format 43 31E07-CD3 bispecific antibody) (bispecific antibody, human IgG1, kappa)
chain: EVQLVESGGGLVQPGGSLRLSCAASGYSFTGYTMNWVRQAPGKGLEWVALINPYKGVSTYNQKFKDRFTISVDKSKNTAYLQMNSLRAEDTAVYYCARSGYYGDSDWYFDVWGQGTLVTVSSGGGGSGGGGSDIQMTQSPSSLSASVGDRVTITCRASQEIRRWLAWYQQKPGKAPKLLIYAASNLQSGVPSRFSGSGSGTDFTLTISSLQPEDFATYYCQQSYSTPYTFGQGTKLEIKGGGGSEPKSSDKTHTCPPCPAPEFEGGPSVFLFPPKPKDTLMISRTPEVTCVVVDVSHEDPEVKFNWYVDGVEVHNAKTKPREEQYNSTYRVVSVLTVLHQDWLNGKEYKCKVSNKALPASIEKTISKAKGQPREPQVYTLPPCREEMTKNQVSLWCLVKGFYPSDIAVEWESNGQPENNYKTTPPVLDSDGSFFLYSKLTVDKSRWQQGNVFSCSVMHEALHNHYTQKSLSLSPGK
heavy: QVQLVQSGAEVKKPGASVKVSCKASGFTFTNYLIHWVRQAPGQGLEWMGWINPNSGGTNYAQRLQGRVTMTRDTSTSTVYMELSSLRSEDTAVYYCARDYGAGNDYWGQGTLVTVSSGGGGSGGGGSDIQMTQSPSSLSASVGDRVTITCRASQDIRNYLNWYQQKPGKAPKLLIYYTSRLESGVPSRFSGSGSGTDYTLTISSLQPEDFATYYCQQGNTLPWTFGQGTKVEIKGGGGSGGGGSQVQLVQSGAEVKKPGASVKVSCKASGFTFTNYLIHWVRQAPGQGLEWMGWINPNSGGTNYAQRLQGRVTMTRDTSTSTVYMELSSLRSEDTAVYYCARDYGAGNDYWGQGTLVTVSSASTKGPSVFPLAPSSKSTSGGTAALGCLVKDYFPEPVTVSWNSGALTSGVHTFPAVLQSSGLYSLSSVVTVPSSSLGTQTYICNVNHKPSNTKVDKRVEPKSCDKTHTCPPCPAPEFEGGPSVFLFPPKPKDTLMISRTPEVTCVVVDVSHEDPEVKFNWYVDGVEVHNAKTKPREEQYNSTYRVVSVLTVLHQDWLNGKEYKCKVSNKALPASIEKTISKAKGQPREPQVCTLPPSREEMTKNQVSLSCAVKGFYPSDIAVEWESNGQPENNYKTTPPVLDSDGSFFLVSKLTVDKSRWQQGNVFSCSVMHEALHNRFTQKSLSLSPGK
light: DIQMTQSPSSLSASVGDRVTITCRASQEIRRWLAWYQQKPGKAPKLLIYAASNLQSGVPSRFSGSGSGTDFTLTISSLQPEDFATYYCQQSYSTPYTFGQGTKLEIKRTVAAPSVFIFPPSDEQLKSGTASVVCLLNNFYPREAKVQWKVDNALQSGNSQESVTEQDSKDSTYSLSSTLTLSKADYEKHKVYACEVTHQGLSSPVTKSFNRGEC
notes: also called 43-E07 hUCHT1v9; 43-31E07-GGGGS-UCHT1v9
Consider B3, for which the “fold increase in binding against 41-E07 UCHT1v9” value in assay [7] is about 10 fold. Further, the “EC50 (read off the curve)” value in assay [8] was about 0.3 nM.
